# Data reported in patent US7598290B2, “Cytotoxic agents comprising new C-2 modified taxanes” (priority 2005, dated 2009).
# Tests used:
# [1] = tested on: human melanoma cells, A-375; experiment: In vitro potency and specificity, WST-8 assay, antigen negative A-375 cells; type: cell-based; settings: for IC50: A-375 (antigen negative), 4 days incubation, WST-8
# Procedure: (§1) In vitro potency and specificity of huC242-Taxoid conjugate. Samples of free taxoid or huC242-Taxoid conjugate were added to a 96-well flat bottomed tissue culture plate and titrated using serial dilutions ranging from 1×10^−12 M to 3×10^−7 M. Human colon tumor cells, COLO 205, or human melanoma cells, A-375, were added to the wells in such a way that there were triplicate samples for each drug concentration for each cell line. The plates were incubated at 37° C. in an atmosphere of 5% CO2 for 4 days.
# (§2) At the end of the incubation period, 20 μl of the tetrazolium reagent WST-8 (2-(2-methoxy-nitrophenyl)-3-(4-nitrophenyl)-5-(2,4-disulfophenyl)-2-tetrazolium, monosodium salt]) was added to each well, and the plates were returned to the incubator for 2 hours. The absorbance in each well of the plates was then measured using the Molecular Devices plate reader at 450 nm. Surviving fraction of cells at each concentration of taxoid or conjugate are plotted in FIGS. 2 a,b.
# [2] = tested on: Human colon tumor cells, COLO 205; experiment: In vitro potency and specificity, WST-8 assay, antigen positive COLO 205 cells; type: cell-based; settings: COLO 205 (antigen positive), 4 days incubation
# Procedure: as §1, §2
Molecule,"IC50 ([1]; Homo sapiens, 96 h)","IC50 ([2]; Homo sapiens, 96 h)",IC50 [1],antigen negative cells less sensitive than COLO 205 ([1]; A-375 versus COLO 205),IC50 [2]
"CSSC(C)(C)CCC(=O)O[C@H]1C(=O)[C@@]2(C)[C@H]([C@H](OC(=O)c3ccco3)[C@]3(O)C[C@H](OC(=O)[C@H](O)[C@@H](NC(=O)OC(C)(C)C)c4ccco4)C(C)=C1C3(C)C)[C@]1(OC(C)=O)CO[C@@H]1C[C@@H]2O [IGT-16-141, 3′-dephenyl-3′-(2-furyl)-2-debenzoyl-2-(2-furoyl)-10-(4,4-dimethyl-4-methyldithiobutanoyl)-docetaxel]",~800 pM,~800 pM,,,
"huC242-taxoid (conjugate, chains of the INN, looked up, taxoid payload conjugate) VH: QVQLVQSGAEVKKPGETVKISCKASDYTFTYYGMNWVKQAPGQGLKWMGWIDTTTGEPTYAQKFQGRIAFSLETSASTAYLQIKSLKSEDTATYFCARRGPYNWYFDVWGQGTTVTVSS VL: DIVMTQSPLSVPVTPGEPVSISCRSSKSLLHSNGNTYLYWFLQRPGQSPQLLIYRMSNLVSGVPDRFSGSGSGTAFTLRISRVEAEDVGVYYCLQHLEYPFTFGPGTKLELK",,,29000 pM,about 94 fold,310 pM
